Test results from publication PMC7617732 (Science translational medicine, 2024).
Changes are numbered by the printed parent chain.

T1: 3FTx-L15 (recombinant long-chain three-finger α-neurotoxin variant) (Ophiophagus hannah (king cobra), long …)
T1 chain: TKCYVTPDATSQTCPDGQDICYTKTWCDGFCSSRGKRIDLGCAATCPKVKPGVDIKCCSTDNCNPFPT

B1: 95Mat2 (antibody, V domains shown)
VH: QVQLVQSGAEVKKPGSSVKVSCKASGGTFSSYAISWVRQAPGQGLEWMGGIIPIFGTANYAQKFQGRVTITADESTSTAYMELSSLRSEDTAVYYCARIPLVWYESGPYESGVFDYWGQGTLVTVSS
VL: not shown
B2: 95Mat6 (antibody, V domains shown)
VH: B1 VH with T57H, V102I
VL: not shown
B3: 95Mat4 (antibody, V domains shown)
VH: B1 VH with V102H
VL: not shown
B4: 95Mat3 (antibody, V domains shown)
VH: B1 VH with T57P
VL: not shown

Target: T1, 3FTx-L15 (recombinant long-chain …)

Row | Binder | Kd [nM] | binding result
1 | B1 | 0.1 | 
2 | B2 | 0.103 | 
3 | B3 |  | binds
4 | B4 |  | binds
